From the supplement of paper PMC6757056
± gives the standard deviation of the averaged measurements.

B1: library; a variant is named by its letters at N, in order (parent)
chain: GCUGUCACCGAGAAACUGUGAAGUAUAUCUUAAACCUGGGCACUUAAAAGAUAUAUGGAGUUAGUAGUGCAACCUGCUCGGUCUGAUGAGUCCNNNNNNGGACGAAACAGC

Experiments:
[1] = variants of: B1; assay: FACS-Seq fitted mean relative fluorescence mCherry/BFP without ligand (log10 relative fluorescence); HEK293T; ligand: cyclic di-GMP (c-di-GMP-II aptamer); higher = higher reporter protein expression; conditions: ligand present: no
Summary of the method: (§1)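 After lentiviral transduction, HEK293T library cells bearing an mCherry ribozyme-switch reporter and an EF1α-BFP marker were enriched. They were then held for 48 h with or without ligand and sorted by mCherry/BFP into 6 bins, and each bin's genomic DNA was PCR-amplified, barcoded and MiSeq-sequenced. Fluorescence is expressed as a normalized fitted mean: the normal mean of log10(mCherry/BFP) bin counts, scaled to five spiked-in control ribozymes.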

[2] = variants of: B1; assay: normalized RNA/DNA level without ligand (relative to sTRSVctl = 100) (log10 (% of sTRSVctl)); HEK293T; ligand: cyclic di-GMP (c-di-GMP-II aptamer); higher = less ribozyme self-cleavage, higher mRNA level; conditions: reporter: mCherry (pCS4076), ligand present: no
Description: (§2)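 Hammerhead (sTRSV) ribozyme switch libraries with a ligand aptamer grafted on stem I and a randomized N4-6 loop II, cloned into the 3' UTR of mCherry and transiently transfected into HEK293T cells; RNA-Seq 72 h post transfection with ligand added 1 h before transfection; RNA read count / plasmid DNA read count normalized to the non-cleaving sTRSVctl (x100), log10; sequences with >100 DNA reads. FACS-Seq: lentiviral library sorted into 6 bins after 48 h ligand, log-normal fit mean of mCherry/BFP scaled to controls. Printed sequences are partial switch sequences.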

[3] = variants of: B1; assay: FACS-Seq fitted mean relative fluorescence mCherry/BFP with ligand (log10 relative fluorescence); HEK293T; ligand: cyclic di-GMP (c-di-GMP-II aptamer); ligand concentration (+) FACS-Seq: 1 mM; higher = higher reporter protein expression; conditions: ligand present: yes
Summary of the method: as §1

[4] = variants of: B1; assay: normalized RNA/DNA level with ligand (relative to sTRSVctl = 100) (log10 (% of sTRSVctl)); HEK293T; ligand: cyclic di-GMP (c-di-GMP-II aptamer); ligand concentration (+) RNA-Seq: 1 mM; higher = less ribozyme self-cleavage, higher mRNA level; conditions: reporter: mCherry (pCS4076), ligand present: yes
Description: as §2

UCAGUC
FACS-Seq fitted mean (log10) [1]: -0.277 ± 0.12
normalized RNA/DNA level without ligand (log10) [2]: 1.697 ± 0.0098
FACS-Seq fitted mean (log10) [3]: -0.0482 ± 0.1
normalized RNA/DNA level with ligand (log10) [4]: 1.85 ± 0.082

UCAGUA
FACS-Seq fitted mean (log10) [1]: -0.6 ± 0.076
normalized RNA/DNA level without ligand (log10) [2]: 1.33 ± 0.2
FACS-Seq fitted mean (log10) [3]: -0.299 ± 0.076
normalized RNA/DNA level with ligand (log10) [4]: 1.59 ± 0.082

UCAGUG
FACS-Seq fitted mean (log10) [1]: -0.446 ± 0.02
normalized RNA/DNA level without ligand (log10) [2]: 1.669 ± 0.0062
FACS-Seq fitted mean (log10) [3]: -0.142 ± 0.12
normalized RNA/DNA level with ligand (log10) [4]: 1.83 ± 0.15

UAUUCU
FACS-Seq fitted mean (log10) [1]: -0.432 ± 0.069
normalized RNA/DNA level without ligand (log10) [2]: 1.7467 ± 0.0014
FACS-Seq fitted mean (log10) [3]: -0.275 ± 0.051
normalized RNA/DNA level with ligand (log10) [4]: 1.89 ± 0.094

GCCAAU
FACS-Seq fitted mean (log10) [1]: -0.423 ± 0.1
normalized RNA/DNA level without ligand (log10) [2]: 1.57 ± 0.021
FACS-Seq fitted mean (log10) [3]: -0.105 ± 0.08
normalized RNA/DNA level with ligand (log10) [4]: 1.75 ± 0.11

GCCAAG
FACS-Seq fitted mean (log10) [1]: -0.6955 ± 0.0047
normalized RNA/DNA level without ligand (log10) [2]: 1.542 ± 0.0066
FACS-Seq fitted mean (log10) [3]: -0.362 ± 0.081
normalized RNA/DNA level with ligand (log10) [4]: 1.67 ± 0.19

GCAUAC
FACS-Seq fitted mean (log10) [1]: -0.0759 ± 0.13
normalized RNA/DNA level without ligand (log10) [2]: 1.42 ± 0.19
FACS-Seq fitted mean (log10) [3]: 0.23 ± 0.036
normalized RNA/DNA level with ligand (log10) [4]: 1.6 ± 0.072

GCAUAG
FACS-Seq fitted mean (log10) [1]: -0.627 ± 0.0092
normalized RNA/DNA level without ligand (log10) [2]: 1.44 ± 0.085
FACS-Seq fitted mean (log10) [3]: -0.39 ± 0.049
normalized RNA/DNA level with ligand (log10) [4]: 1.66 ± 0.093

CCAGCA
FACS-Seq fitted mean (log10) [1]: -0.507 ± 0.13
normalized RNA/DNA level without ligand (log10) [2]: 1.73 ± 0.021
FACS-Seq fitted mean (log10) [3]: -0.329 ± 0.02
normalized RNA/DNA level with ligand (log10) [4]: 1.86 ± 0.098

GCAAUC
FACS-Seq fitted mean (log10) [1]: -0.612 ± 0.083
normalized RNA/DNA level without ligand (log10) [2]: 1.27 ± 0.1
FACS-Seq fitted mean (log10) [3]: -0.425 ± 0.016
normalized RNA/DNA level with ligand (log10) [4]: 1.52 ± 0.1

GCAAUG
FACS-Seq fitted mean (log10) [1]: -0.186 ± 0.0033
normalized RNA/DNA level without ligand (log10) [2]: 1.45 ± 0.14
FACS-Seq fitted mean (log10) [3]: 0.131 ± 0.072
normalized RNA/DNA level with ligand (log10) [4]: 1.64 ± 0.069

GCAAUA
FACS-Seq fitted mean (log10) [1]: -0.419 ± 0.034
normalized RNA/DNA level without ligand (log10) [2]: 1.41 ± 0.079
FACS-Seq fitted mean (log10) [3]: -0.0479 ± 0.074
normalized RNA/DNA level with ligand (log10) [4]: 1.63 ± 0.058

UCAUUA
FACS-Seq fitted mean (log10) [1]: -0.996 ± 0.055
normalized RNA/DNA level without ligand (log10) [2]: 1.5 ± 0.017
FACS-Seq fitted mean (log10) [3]: -0.732 ± 0.049
normalized RNA/DNA level with ligand (log10) [4]: 1.73 ± 0.15

UCAUUU
FACS-Seq fitted mean (log10) [1]: -0.43 ± 0.036
normalized RNA/DNA level without ligand (log10) [2]: 1.637 ± 0.0076
FACS-Seq fitted mean (log10) [3]: -0.178 ± 0.038
normalized RNA/DNA level with ligand (log10) [4]: 1.78 ± 0.14

ACAUUA
FACS-Seq fitted mean (log10) [1]: -0.21 ± 0.0052
normalized RNA/DNA level without ligand (log10) [2]: 1.41 ± 0.087
FACS-Seq fitted mean (log10) [3]: 0.0676 ± 0.069
normalized RNA/DNA level with ligand (log10) [4]: 1.62 ± 0.078

ACAUUG
FACS-Seq fitted mean (log10) [1]: -0.689 ± 0.036
normalized RNA/DNA level without ligand (log10) [2]: 1.53 ± 0.024
FACS-Seq fitted mean (log10) [3]: -0.401 ± 0.11
normalized RNA/DNA level with ligand (log10) [4]: 1.69 ± 0.13

UCACUU
FACS-Seq fitted mean (log10) [1]: -0.404 ± 0.091
normalized RNA/DNA level without ligand (log10) [2]: 1.611 ± 0.0095
FACS-Seq fitted mean (log10) [3]: -0.0521 ± 0.15
normalized RNA/DNA level with ligand (log10) [4]: 1.77 ± 0.14

ACCCGC
FACS-Seq fitted mean (log10) [1]: -0.436 ± 0.15
normalized RNA/DNA level without ligand (log10) [2]: 1.75 ± 0.018
FACS-Seq fitted mean (log10) [3]: -0.0881 ± 0.013
normalized RNA/DNA level with ligand (log10) [4]: 1.85 ± 0.099

UAUGUA
FACS-Seq fitted mean (log10) [1]: -0.622 ± 0.023
normalized RNA/DNA level without ligand (log10) [2]: 1.668 ± 0.0069
FACS-Seq fitted mean (log10) [3]: -0.405 ± 0.035
normalized RNA/DNA level with ligand (log10) [4]: 1.84 ± 0.08

GCACAA
FACS-Seq fitted mean (log10) [1]: -0.339 ± 0.051
normalized RNA/DNA level without ligand (log10) [2]: 1.41 ± 0.051
FACS-Seq fitted mean (log10) [3]: 0.0543 ± 0.037
normalized RNA/DNA level with ligand (log10) [4]: 1.62 ± 0.11

GCACAC
FACS-Seq fitted mean (log10) [1]: -0.421 ± 0.06
normalized RNA/DNA level without ligand (log10) [2]: 1.55 ± 0.034
FACS-Seq fitted mean (log10) [3]: 0.00625 ± 0.1
normalized RNA/DNA level with ligand (log10) [4]: 1.69 ± 0.13

GCACAU
FACS-Seq fitted mean (log10) [1]: -0.28 ± 0.043
normalized RNA/DNA level without ligand (log10) [2]: 1.47 ± 0.055
FACS-Seq fitted mean (log10) [3]: -0.00874 ± 0.0028
normalized RNA/DNA level with ligand (log10) [4]: 1.69 ± 0.11

CCAGAA
FACS-Seq fitted mean (log10) [1]: -0.598 ± 0.013
normalized RNA/DNA level without ligand (log10) [2]: 1.34 ± 0.14
FACS-Seq fitted mean (log10) [3]: -0.277 ± 0.015
normalized RNA/DNA level with ligand (log10) [4]: 1.58 ± 0.1

CCAGAC
FACS-Seq fitted mean (log10) [1]: -0.24 ± 0.11
normalized RNA/DNA level without ligand (log10) [2]: 1.631 ± 0.0075
FACS-Seq fitted mean (log10) [3]: 0.128 ± 0.0098
normalized RNA/DNA level with ligand (log10) [4]: 1.83 ± 0.16

GCCACC
FACS-Seq fitted mean (log10) [1]: -0.0159 ± 0.27
normalized RNA/DNA level without ligand (log10) [2]: 1.682 ± 0.011
FACS-Seq fitted mean (log10) [3]: 0.0347 ± 0.1
normalized RNA/DNA level with ligand (log10) [4]: 1.84 ± 0.095

UCCAAA
FACS-Seq fitted mean (log10) [1]: -0.284 ± 0.0034
normalized RNA/DNA level without ligand (log10) [2]: 1.57 ± 0.076
FACS-Seq fitted mean (log10) [3]: 0.111 ± 0.079
normalized RNA/DNA level with ligand (log10) [4]: 1.75 ± 0.12

ACCACC
FACS-Seq fitted mean (log10) [1]: -0.899 ± 0.064
normalized RNA/DNA level without ligand (log10) [2]: 1.6 ± 0.088
FACS-Seq fitted mean (log10) [3]: -0.618 ± 0.019
normalized RNA/DNA level with ligand (log10) [4]: 1.76 ± 0.097

UCCCGU
FACS-Seq fitted mean (log10) [1]: -0.0215 ± 0.15
normalized RNA/DNA level without ligand (log10) [2]: 1.72 ± 0.022
FACS-Seq fitted mean (log10) [3]: 0.3 ± 0.015
normalized RNA/DNA level with ligand (log10) [4]: 1.83 ± 0.15

GAUUGA
FACS-Seq fitted mean (log10) [1]: 0.00942 ± 0.089
normalized RNA/DNA level without ligand (log10) [2]: 1.5 ± 0.084
FACS-Seq fitted mean (log10) [3]: 0.252 ± 0.042
normalized RNA/DNA level with ligand (log10) [4]: 1.7 ± 0.072

GAUUGG
FACS-Seq fitted mean (log10) [1]: -0.22 ± 0.02
normalized RNA/DNA level without ligand (log10) [2]: 1.63 ± 0.02
FACS-Seq fitted mean (log10) [3]: 0.0818 ± 0.059
normalized RNA/DNA level with ligand (log10) [4]: 1.75 ± 0.093

CCAUUG
FACS-Seq fitted mean (log10) [1]: -0.474 ± 0.062
normalized RNA/DNA level without ligand (log10) [2]: 1.28 ± 0.11
FACS-Seq fitted mean (log10) [3]: -0.134 ± 0.034
normalized RNA/DNA level with ligand (log10) [4]: 1.55 ± 0.093

UCCAGA
FACS-Seq fitted mean (log10) [1]: -0.246 ± 0.071
normalized RNA/DNA level without ligand (log10) [2]: 1.631 ± 0.014
FACS-Seq fitted mean (log10) [3]: 0.0947 ± 0.062
normalized RNA/DNA level with ligand (log10) [4]: 1.82 ± 0.081

UCCAGC
FACS-Seq fitted mean (log10) [1]: -0.739 ± 0.051
normalized RNA/DNA level without ligand (log10) [2]: 1.66 ± 0.059
FACS-Seq fitted mean (log10) [3]: -0.609 ± 0.015
normalized RNA/DNA level with ligand (log10) [4]: 1.84 ± 0.15

CAUUAU
FACS-Seq fitted mean (log10) [1]: -0.4943 ± 0.0018
normalized RNA/DNA level without ligand (log10) [2]: 1.54 ± 0.098
FACS-Seq fitted mean (log10) [3]: -0.353 ± 0.08
normalized RNA/DNA level with ligand (log10) [4]: 1.71 ± 0.1

CAUUAA
FACS-Seq fitted mean (log10) [1]: -0.604 ± 0.025
normalized RNA/DNA level without ligand (log10) [2]: 1.26 ± 0.11
FACS-Seq fitted mean (log10) [3]: -0.31552 ± 2.8e-05
normalized RNA/DNA level with ligand (log10) [4]: 1.46 ± 0.12

AAUUGG
FACS-Seq fitted mean (log10) [1]: 0.0192 ± 0.091
normalized RNA/DNA level without ligand (log10) [2]: 1.59 ± 0.068
FACS-Seq fitted mean (log10) [3]: 0.141 ± 0.0084
normalized RNA/DNA level with ligand (log10) [4]: 1.74 ± 0.13
